# Patent US20200231652A1 (NATIONAL RESEARCH COUNCIL OF CANADA, published 2020)
# B1: Synagis (antibody, human IgG1, kappa, V domains shown)
# VH: QVTLRESGPALVKPTQTLTLTCTFSGFSLSTSGMSVGWIRQPPGKALEWLADIWWDDKKDYNPSLKSRLTISKDTSKNQVVLKVTNMDPADTATYYCARSMITNWYFDVWGAGTTVTVSS
# VL: DIQMTQSPSTLSASVGDRVTITCKCQLSVGYMHWYQQKPGKAPKLLIYDTSKLASGVPSRFSGSGSGTEFTLTISSLQPDDFATYYCFQGSGYPFTFGGGTKLEIKR
# Target: RSV-F (UniProt P03420 26-529)
# Test: SPR, similar method as for Cetuximab
# RSV-F, sequence (P03420 26-529): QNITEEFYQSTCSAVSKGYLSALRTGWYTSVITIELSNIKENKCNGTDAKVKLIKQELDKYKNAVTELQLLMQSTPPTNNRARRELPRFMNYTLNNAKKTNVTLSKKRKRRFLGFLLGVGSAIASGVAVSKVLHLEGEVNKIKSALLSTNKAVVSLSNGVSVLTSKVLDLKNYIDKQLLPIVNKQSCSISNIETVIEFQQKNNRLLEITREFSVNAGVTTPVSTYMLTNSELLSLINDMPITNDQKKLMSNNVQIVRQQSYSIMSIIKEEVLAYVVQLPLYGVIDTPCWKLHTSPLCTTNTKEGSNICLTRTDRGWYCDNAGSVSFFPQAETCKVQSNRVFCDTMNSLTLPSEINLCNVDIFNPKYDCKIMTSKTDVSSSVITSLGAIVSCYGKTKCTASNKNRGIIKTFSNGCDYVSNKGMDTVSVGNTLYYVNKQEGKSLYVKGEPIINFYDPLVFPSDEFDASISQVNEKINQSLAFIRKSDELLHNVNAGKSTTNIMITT
binder,measurement,value
B1,Kd,6.6 nM
